Data from PMC4844422, “Activity Regulation by Heteromerization of Arabidopsis Allene Oxide Cyclase Family Members” (Plants, 2016).

B1: Arabidopsis allene oxide cyclase 2 (AOC2), recombinant, with N-terminal His-tag (enzyme, Arabidopsis thaliana, UniProt Q9LS02 78-253, looked up)
chain: PSKVQELSVYEINELDRHSPKILKNAFSLMFGLGDLVPFTNKLYTGDLKKRVGITAGLCVVIEHVPEKKGERFEATYSFYFGDYGHLSVQGPYLTYEDSFLAITGGAGIFEGAYGQVKLQQLVYPTKLFYTFYLKGLANDLPLELTGTPVPPSKDIEPAPEAKALEPSGVISNYTN
notes: also called AtAOC2; hAOC2; source: E. coli M15 (pQE30), purified (Ni-NTA-agarose); not shown: His-tag, N-terminal, kept
B2: Arabidopsis allene oxide cyclase 2 (AOC2), recombinant, with C-terminal His-tag (enzyme, Arabidopsis thaliana, UniProt Q9LS02 78-253, looked up)
chain: B1 chain
notes: also called AtAOC2; source: E. coli M15 (pQE60), purified (Ni-NTA-agarose); not shown: His-tag, C-terminal, kept

Target: the molecule itself
Experiment: SDS-PAGE after mild SDS treatment (SDS-stable oligomer); purified His-tagged protein treated with 1% SDS for 5 min at room temperature or 42 °C, 12% SDS-PAGE, anti-His-tag immunoblot; trimer at about 65 kDa, monomer 26 kDa

Protein	stoichiometry N
B1	3
B2	3
